IntAct's records for PubMed 30814734

B1: BTB/POZ domain-containing protein KCTD16 (Homo sapiens), Q68DU8 (parent)
chain: MALSGNCSRYYPREQGSAVPNSFPEVVELNVGGQVYFTRHSTLISIPHSLLWKMFSPKRDTANDLAKDSKGRFFIDRDGFLFRYILDYLRDRQVVLPDHFPEKGRLKREAEYFQLPDLVKLLTPDEIKQSPDEFCHSDFEDASQGSDTRICPPSSLLPADRKWGFITVGYRGSCTLGREGQADAKFRRVPRILVCGRISLAKEVFGETLNESRDPDRAPERYTSRFYLKFKHLERAFDMLSECGFHMVACNSSVTASFINQYTDDKIWSSYTEYVFYREPSRWSPSHCDCCCKNGKGDKEGESGTSCNDLSTSSCDSQSEASSPQETVICGPVTRQTNIQTLDRPIKKGPVQLIQQSEMRRKSDLLRTLTSGSRESNMSSKKKAVKEKLSIEEELEKCIQDFLKIKIPDRFPERKHPWQSELLRKYHL
partner: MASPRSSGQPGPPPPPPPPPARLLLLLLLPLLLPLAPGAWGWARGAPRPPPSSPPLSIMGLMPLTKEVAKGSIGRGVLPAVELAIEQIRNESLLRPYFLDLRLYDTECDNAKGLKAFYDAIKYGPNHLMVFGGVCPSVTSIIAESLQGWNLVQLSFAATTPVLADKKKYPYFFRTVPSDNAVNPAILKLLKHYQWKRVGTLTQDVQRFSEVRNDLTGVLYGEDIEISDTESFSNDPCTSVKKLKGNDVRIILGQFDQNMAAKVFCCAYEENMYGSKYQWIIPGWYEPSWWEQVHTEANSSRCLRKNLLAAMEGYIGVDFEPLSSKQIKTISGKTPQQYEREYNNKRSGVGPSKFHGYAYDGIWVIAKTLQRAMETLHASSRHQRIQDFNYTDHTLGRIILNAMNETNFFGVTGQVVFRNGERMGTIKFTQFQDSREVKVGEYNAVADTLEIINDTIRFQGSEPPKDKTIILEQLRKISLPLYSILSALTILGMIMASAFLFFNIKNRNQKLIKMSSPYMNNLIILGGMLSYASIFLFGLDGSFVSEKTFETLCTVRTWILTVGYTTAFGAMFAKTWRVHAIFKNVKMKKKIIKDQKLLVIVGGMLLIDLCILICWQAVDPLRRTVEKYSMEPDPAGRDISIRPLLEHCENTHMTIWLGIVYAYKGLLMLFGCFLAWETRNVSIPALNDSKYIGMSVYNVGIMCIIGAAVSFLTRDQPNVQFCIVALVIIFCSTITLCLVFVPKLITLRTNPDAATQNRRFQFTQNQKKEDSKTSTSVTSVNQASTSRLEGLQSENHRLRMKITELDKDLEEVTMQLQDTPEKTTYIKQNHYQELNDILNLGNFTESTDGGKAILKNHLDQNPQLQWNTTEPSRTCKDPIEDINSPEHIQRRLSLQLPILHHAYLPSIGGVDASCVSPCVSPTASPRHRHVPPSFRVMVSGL

Variants of: B1
Settings: with gabr2_human GABBR2, O75899

effect of a mutation on the interaction | Variant
disrupting interaction strength | F80A
